Key:
MBD2 MBD R188K = MBD2 MBD R188K (Homo sapiens, UniProt Q9UBB5 143-220, R188K); test: ITC
MBD2 MBD R166K/R188K = MBD2 MBD R166K/R188K (Homo sapiens, UniProt Q9UBB5 143-220, R166K;R188K); test: ITC
MBD2 MBD R166K/R188K, sequence (Q9UBB5 143-220 R166K/R188K): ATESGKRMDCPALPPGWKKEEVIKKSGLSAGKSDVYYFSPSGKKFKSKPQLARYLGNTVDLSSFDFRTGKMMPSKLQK

MBD2 MBD R188K, sequence (Q9UBB5 143-220 R188K): as the sequence (Q9UBB5 143-220 R166K/R188K) above, with K24R counted along it

B1: mCG dsDNA 12mer (dsDNA)
DNA 1: GCCAACGTTGGC
DNA 2: GCCAACGTTGGC
modifications: 5-methyl-C at position 6 of both strands
Kd (MBD2 MBD R188K): 7.5 ± 0.4 µM | binding result (MBD2 MBD R166K/R188K): no binding

Reference: paper PMC8600091
